Earlier results as cited in paper PMC5000552.
pKd: −log10 of the molar value.

Molecular target: BCL6 (Homo sapiens) (UniProt P41182)

BCOR, sequence (Q6W2J9 whole entry): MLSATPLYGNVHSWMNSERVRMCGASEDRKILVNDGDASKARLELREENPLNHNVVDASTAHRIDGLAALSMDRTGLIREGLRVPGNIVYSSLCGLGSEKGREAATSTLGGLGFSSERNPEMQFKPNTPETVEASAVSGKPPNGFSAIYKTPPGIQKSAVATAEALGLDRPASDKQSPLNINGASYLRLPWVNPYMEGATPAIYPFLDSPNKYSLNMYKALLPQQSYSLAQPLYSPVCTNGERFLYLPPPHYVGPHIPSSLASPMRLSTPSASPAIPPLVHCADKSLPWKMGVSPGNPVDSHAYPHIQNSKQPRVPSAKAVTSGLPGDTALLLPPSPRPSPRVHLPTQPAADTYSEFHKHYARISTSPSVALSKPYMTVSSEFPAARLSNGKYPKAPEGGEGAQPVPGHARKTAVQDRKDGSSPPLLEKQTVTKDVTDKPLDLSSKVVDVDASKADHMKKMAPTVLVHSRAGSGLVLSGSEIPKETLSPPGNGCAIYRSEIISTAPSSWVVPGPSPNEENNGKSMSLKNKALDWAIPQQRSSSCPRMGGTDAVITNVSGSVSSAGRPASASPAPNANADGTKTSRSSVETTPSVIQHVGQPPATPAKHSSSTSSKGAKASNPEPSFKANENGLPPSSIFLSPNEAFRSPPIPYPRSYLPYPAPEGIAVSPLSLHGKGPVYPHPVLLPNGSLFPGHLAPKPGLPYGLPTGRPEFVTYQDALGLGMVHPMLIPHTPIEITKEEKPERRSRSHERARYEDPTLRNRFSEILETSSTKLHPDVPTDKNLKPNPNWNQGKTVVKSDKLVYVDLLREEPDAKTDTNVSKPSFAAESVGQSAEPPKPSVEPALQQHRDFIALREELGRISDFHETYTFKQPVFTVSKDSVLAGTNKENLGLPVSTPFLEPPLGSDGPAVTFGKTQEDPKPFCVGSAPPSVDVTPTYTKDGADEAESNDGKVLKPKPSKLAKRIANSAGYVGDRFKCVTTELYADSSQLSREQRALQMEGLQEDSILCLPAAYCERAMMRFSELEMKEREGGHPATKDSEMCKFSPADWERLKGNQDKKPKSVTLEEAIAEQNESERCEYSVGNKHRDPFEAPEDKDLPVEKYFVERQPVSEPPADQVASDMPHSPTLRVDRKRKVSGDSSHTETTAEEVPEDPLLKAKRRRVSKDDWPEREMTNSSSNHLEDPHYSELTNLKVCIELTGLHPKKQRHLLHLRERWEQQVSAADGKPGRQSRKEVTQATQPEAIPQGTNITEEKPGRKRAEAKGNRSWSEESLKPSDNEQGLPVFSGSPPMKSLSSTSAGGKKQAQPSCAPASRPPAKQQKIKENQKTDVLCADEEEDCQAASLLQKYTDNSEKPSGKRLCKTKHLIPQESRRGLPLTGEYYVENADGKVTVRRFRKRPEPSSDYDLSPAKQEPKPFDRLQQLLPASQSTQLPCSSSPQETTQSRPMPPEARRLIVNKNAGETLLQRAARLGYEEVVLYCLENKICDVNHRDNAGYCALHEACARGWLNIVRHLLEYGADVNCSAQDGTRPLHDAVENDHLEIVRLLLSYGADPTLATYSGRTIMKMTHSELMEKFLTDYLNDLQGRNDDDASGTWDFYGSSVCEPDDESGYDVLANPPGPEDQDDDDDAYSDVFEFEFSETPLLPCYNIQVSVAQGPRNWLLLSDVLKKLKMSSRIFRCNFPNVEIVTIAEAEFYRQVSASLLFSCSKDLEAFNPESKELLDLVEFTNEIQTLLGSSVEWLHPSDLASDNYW

pKd: 4.70
Substance: BCOR (from UniProt Q6W2J9)
